Columns and labels:
[1] = molecular target: recombinant GpA extracellular domain fused to Fc and His tag (rGpA-Fc-His) (human) (UniProt P02724); assay: SDS-PAGE without and with reducing agent
[2] = molecular target: Plasmodium falciparum EBA-175 region II (P. falciparum)
[3] = molecular target: recombinant GpA extracellular domain fused to Fc and His tag (rGpA-Fc-His) (human) (UniProt P02724); assay: AUC

recombinant GpA extracellular domain fused to Fc and His tag (rGpA-Fc-His) (from UniProt P02724 23-84) (Fc fusion)
stoichiometry N [1]: 2
parasite growth with 30 µM rGpA, strains 3D7, Dd2 and FVO/FCR1 [2]: 50%
stoichiometry N [3]: 2

From paper PMC4173783
